Laboratory results from US20220048967A1 (published 2022).
Positions count from the first letter of the chain named. Numbered stars: 1 amine (or outer) side, 2 acyl side, 3 side chain; on linkers, the order of the positions; unused ones are H or OH. Square brackets hold non-standard residues; d marks the D form. Side chains are listed from the residue outwards. Ends that are not written are not given here. * marks the point of attachment. C20 diacid = O=C(O)CCCCCCCCCCCCCCCCCCC(=O)*; γGlu = O=C(O)[C@H](CCC(=O)[*:2])N[*:1]; αMeL = CC(C)C[C@](C)(N)C(=O)O; Dab = NCC[C@H](N)C(=O)O; Dap = NC[C@H](N)C(=O)O; AEEA = NCCOCCOCC(=O)O; Aib = CC(C)(N)C(=O)O

T1: human gastric inhibitory peptide receptor (GIPR) (human, UniProt P48546 22-466)
T1 sequence (looked up): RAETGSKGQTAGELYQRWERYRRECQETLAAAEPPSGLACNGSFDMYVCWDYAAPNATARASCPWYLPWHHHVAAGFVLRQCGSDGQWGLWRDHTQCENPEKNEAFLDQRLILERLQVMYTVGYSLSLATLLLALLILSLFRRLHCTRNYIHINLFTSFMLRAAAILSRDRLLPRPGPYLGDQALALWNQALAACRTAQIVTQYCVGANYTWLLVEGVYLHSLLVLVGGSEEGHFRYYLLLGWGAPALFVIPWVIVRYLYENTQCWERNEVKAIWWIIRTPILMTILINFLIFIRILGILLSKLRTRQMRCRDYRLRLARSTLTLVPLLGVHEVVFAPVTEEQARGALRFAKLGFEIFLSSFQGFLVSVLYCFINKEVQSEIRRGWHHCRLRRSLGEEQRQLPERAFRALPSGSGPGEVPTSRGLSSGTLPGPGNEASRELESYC

B1: Example 326 (peptide)
peptide: F[Aib]EGTFTSDYSILLDKK([AEEA-AEEA-γGlu-C20 diacid])AQ[Aib]AFIEYLIEGGPSSGAPPPS-NH2
B2: Example 327 (peptide)
peptide: FXEGTFTSDYSIXLDKKAQXAFIEYLIEGGPSSGAPPPS
modifications: Aib2, αMeL13, (2-[2-(2-Amino-ethoxy)-ethoxy]-acetyl)2-(γ-Glu)-CO-(CH2)18-CO2H on K17, Aib20, C-terminal NH2
B3: Example 349 (peptide)
peptide: B2 peptide with F1X, K16X, A21E, E28A
modifications: D-Tyr1, Aib2, αMeL13, Orn16, (2-[2-(2-Amino-ethoxy)-ethoxy]-acetyl)2-(γ-Glu)-CO-(CH2)18-CO2H on K17, Aib20, C-terminal NH2
B4: Example 341 (peptide)
peptide: B2 peptide with F1X, K16E, E28A
modifications: not fully specified; D-Tyr1, Aib2, αMeL13, (2-[2-(2-Amino-ethoxy)-ethoxy]-acetyl)2-(γ-Glu)-CO-(CH2)18-CO2H on K17, Aib20, C-terminal NH2
B5: Example 337 (peptide)
peptide: B2 peptide with E28A
modifications: not fully specified; Aib2, αMeL13, (2-[2-(2-Amino-ethoxy)-ethoxy]-acetyl)2-(γ-Glu)-CO-(CH2)18-CO2H on K17, Aib20, C-terminal NH2
B6: Example 338 (peptide)
peptide: B2 peptide with A21E, E28A
modifications: not fully specified; Aib2, αMeL13, (2-[2-(2-Amino-ethoxy)-ethoxy]-acetyl)2-(γ-Glu)-CO-(CH2)18-CO2H on K17, Aib20, C-terminal NH2
B7: Example 342 (peptide)
peptide: B2 peptide with F1X, K16E, A21E, E28A
modifications: not fully specified; D-Tyr1, Aib2, αMeL13, (2-[2-(2-Amino-ethoxy)-ethoxy]-acetyl)2-(γ-Glu)-CO-(CH2)18-CO2H on K17, Aib20, C-terminal NH2
B8: Example 334 (peptide)
peptide: B2 peptide with F1X
modifications: not fully specified; D-Tyr1, Aib2, αMeL13, (2-[2-(2-Amino-ethoxy)-ethoxy]-acetyl)2-(γ-Glu)-CO-(CH2)18-CO2H on K17, Aib20, C-terminal NH2
B9: Example 346 (peptide)
peptide: B2 peptide with F1X, K16X, E28A
modifications: D-Tyr1, Aib2, αMeL13, Orn16, (2-[2-(2-Amino-ethoxy)-ethoxy]-acetyl)2-(γ-Glu)-CO-(CH2)18-CO2H on K17, Aib20, C-terminal NH2
B10: Example 329 (peptide)
peptide: B2 peptide with F1X, F6X, X13L
modifications: D-Tyr1, Aib2, αMeF6, (2-[2-(2-Amino-ethoxy)-ethoxy]-acetyl)2-(γ-Glu)-CO-(CH2)18-CO2H on K17, Aib20, C-terminal NH2
B11: Example 339 (peptide)
peptide: B2 peptide with F1Y, A21E, E28A
modifications: not fully specified; Aib2, αMeL13, (2-[2-(2-Amino-ethoxy)-ethoxy]-acetyl)-(γ-Glu)-CO-(CH2)18-CO2H on K17, Aib20, C-terminal NH2
B12: Example 331 (peptide)
peptide: B2 peptide with F1Y, K16E, A21E, E28A
modifications: Aib2, αMeL13, (2-[2-(2-Amino-ethoxy)-ethoxy]-acetyl)2-(γ-Glu)-CO-(CH2)18-CO2H on K17, Aib20, C-terminal NH2
B13: Example 340 (peptide)
peptide: B2 peptide with F1X, E28A
modifications: not fully specified; D-Tyr1, Aib2, αMeL13, (2-[2-(2-Amino-ethoxy)-ethoxy]-acetyl)2-(γ-Glu)-CO-(CH2)18-CO2H on K17, Aib20, C-terminal NH2
B14: Example 332 (peptide)
peptide: B2 peptide with F1Y, K16E, E28A
modifications: Aib2, αMeL13, (2-[2-(2-Amino-ethoxy)-ethoxy]-acetyl)2-(γ-Glu)-CO-(CH2)18-CO2H on K17, Aib20, C-terminal NH2
B15: Example 333 (peptide)
peptide: B2 peptide with F1Y, A21E
modifications: not fully specified; Aib2, αMeL13, (2-[2-(2-Amino-ethoxy)-ethoxy]-acetyl)2-(γ-Glu)-CO-(CH2)18-CO2H on K17, Aib20, C-terminal NH2
B16: Example 344 (peptide)
peptide: B2 peptide with F1Y, K16E, A21D, E28A
modifications: Aib2, αMeL13, (2-[2-(2-Amino-ethoxy)-ethoxy]-acetyl)2-(γ-Glu)-CO-(CH2)18-CO2H on K17, Aib20, C-terminal NH2
B17: Example 328 (peptide)
peptide: B2 peptide with G29A
modifications: Aib2, αMeL13, (2-[2-(2-Amino-ethoxy)-ethoxy]-acetyl)2-(γ-Glu)-CO-(CH2)16-CO2H on K17, Aib20, C-terminal NH2
B18: Example 343 (peptide)
peptide: B2 peptide with F1Y, K16E, E24X, E28A
modifications: not fully specified; Aib2, αMeL13, (2-[2-(2-Amino-ethoxy)-ethoxy]-acetyl)2-(γ-Glu)-CO-(CH2)18-CO2H on K17, Aib20, D-Glu24, C-terminal NH2
B19: Example 347 (peptide)
peptide: [dY][Aib]EGTFTSDYSI[αMeL]LD[Dab]K([AEEA-AEEA-γGlu-C20 diacid])AQ[Aib]AFIEYLIAGGPSSGAPPPS-NH2
modifications: N-terminus assumed
SMILES: CC[C@H](C)[C@H](NC(=O)[C@H](CC(C)C)NC(=O)[C@H](Cc1ccc(O)cc1)NC(=O)[C@H](CCC(=O)O)NC(=O)[C@@H](NC(=O)[C@H](Cc1ccccc1)NC(=O)[C@H](C)NC(=O)C(C)(C)NC(=O)[C@H](CCC(N)=O)NC(=O)[C@H](C)NC(=O)[C@H](CCCCNC(=O)COCCOCCNC(=O)COCCOCCNC(=O)CC[C@H](NC(=O)CCCCCCCCCCCCCCCCCCC(=O)O)C(=O)O)NC(=O)[C@H](CCN)NC(=O)[C@H](CC(=O)O)NC(=O)[C@H](CC(C)C)NC(=O)[C@](C)(CC(C)C)NC(=O)[C@@H](NC(=O)[C@H](CO)NC(=O)[C@H](Cc1ccc(O)cc1)NC(=O)[C@H](CC(=O)O)NC(=O)[C@H](CO)NC(=O)[C@@H](NC(=O)[C@H](Cc1ccccc1)NC(=O)[C@@H](NC(=O)CNC(=O)[C@H](CCC(=O)O)NC(=O)C(C)(C)NC(=O)[C@H](N)Cc1ccc(O)cc1)[C@@H](C)O)[C@@H](C)O)[C@@H](C)CC)[C@@H](C)CC)C(=O)N[C@@H](C)C(=O)NCC(=O)NCC(=O)N1CCC[C@H]1C(=O)N[C@@H](CO)C(=O)N[C@@H](CO)C(=O)NCC(=O)N[C@@H](C)C(=O)N1CCC[C@H]1C(=O)N1CCC[C@H]1C(=O)N1CCC[C@H]1C(=O)N[C@@H](CO)C(N)=O
B20: Example 330 (peptide)
peptide: Y[Aib]EGTFTSDYSILLDEK([AEEA-AEEA-γGlu-C20 diacid])AQ[Aib]AFIEYLIAGGPSSGAPPPS-NH2
modifications: N-terminus assumed
SMILES: CC[C@H](C)[C@H](NC(=O)[C@H](CC(C)C)NC(=O)[C@H](Cc1ccc(O)cc1)NC(=O)[C@H](CCC(=O)O)NC(=O)[C@@H](NC(=O)[C@H](Cc1ccccc1)NC(=O)[C@H](C)NC(=O)C(C)(C)NC(=O)[C@H](CCC(N)=O)NC(=O)[C@H](C)NC(=O)[C@H](CCCCNC(=O)COCCOCCNC(=O)COCCOCCNC(=O)CC[C@H](NC(=O)CCCCCCCCCCCCCCCCCCC(=O)O)C(=O)O)NC(=O)[C@H](CCC(=O)O)NC(=O)[C@H](CC(=O)O)NC(=O)[C@H](CC(C)C)NC(=O)[C@H](CC(C)C)NC(=O)[C@@H](NC(=O)[C@H](CO)NC(=O)[C@H](Cc1ccc(O)cc1)NC(=O)[C@H](CC(=O)O)NC(=O)[C@H](CO)NC(=O)[C@@H](NC(=O)[C@H](Cc1ccccc1)NC(=O)[C@@H](NC(=O)CNC(=O)[C@H](CCC(=O)O)NC(=O)C(C)(C)NC(=O)[C@@H](N)Cc1ccc(O)cc1)[C@@H](C)O)[C@@H](C)O)[C@@H](C)CC)[C@@H](C)CC)C(=O)N[C@@H](C)C(=O)NCC(=O)NCC(=O)N1CCC[C@H]1C(=O)N[C@@H](CO)C(=O)N[C@@H](CO)C(=O)NCC(=O)N[C@@H](C)C(=O)N1CCC[C@H]1C(=O)N1CCC[C@H]1C(=O)N1CCC[C@H]1C(=O)N[C@@H](CO)C(N)=O
B21: Example 348 (peptide)
peptide: [dY][Aib]EGTFTSDYSI[αMeL]LD[Dap]K([AEEA-AEEA-γGlu-C20 diacid])AQ[Aib]AFIEYLIAGGPSSGAPPPS-NH2
modifications: N-terminus assumed
SMILES: CC[C@H](C)[C@H](NC(=O)[C@H](CC(C)C)NC(=O)[C@H](Cc1ccc(O)cc1)NC(=O)[C@H](CCC(=O)O)NC(=O)[C@@H](NC(=O)[C@H](Cc1ccccc1)NC(=O)[C@H](C)NC(=O)C(C)(C)NC(=O)[C@H](CCC(N)=O)NC(=O)[C@H](C)NC(=O)[C@H](CCCCNC(=O)COCCOCCNC(=O)COCCOCCNC(=O)CC[C@H](NC(=O)CCCCCCCCCCCCCCCCCCC(=O)O)C(=O)O)NC(=O)[C@H](CN)NC(=O)[C@H](CC(=O)O)NC(=O)[C@H](CC(C)C)NC(=O)[C@](C)(CC(C)C)NC(=O)[C@@H](NC(=O)[C@H](CO)NC(=O)[C@H](Cc1ccc(O)cc1)NC(=O)[C@H](CC(=O)O)NC(=O)[C@H](CO)NC(=O)[C@@H](NC(=O)[C@H](Cc1ccccc1)NC(=O)[C@@H](NC(=O)CNC(=O)[C@H](CCC(=O)O)NC(=O)C(C)(C)NC(=O)[C@H](N)Cc1ccc(O)cc1)[C@@H](C)O)[C@@H](C)O)[C@@H](C)CC)[C@@H](C)CC)C(=O)N[C@@H](C)C(=O)NCC(=O)NCC(=O)N1CCC[C@H]1C(=O)N[C@@H](CO)C(=O)N[C@@H](CO)C(=O)NCC(=O)N[C@@H](C)C(=O)N1CCC[C@H]1C(=O)N1CCC[C@H]1C(=O)N1CCC[C@H]1C(=O)N[C@@H](CO)C(N)=O

biological target: T1, human gastric inhibitory peptide …; experiment: cell-based or functional assay

Binder | hGIPR cAMP EC50 ratio | hGIPR cAMP Rel EC50 [nM]
B1 | 1.5 | 0.0754
B2 | 1.47 | 0.0548
B3 | 0.756 | 0.117
B4 | 0.213 | 0.238
B5 | 1.18 | 0.0515
B6 | 1.29 | 0.0472
B7 | 0.32 | 0.159
B8 | 0.844 | 0.0718
B9 | 0.604 | 0.144
B10 | 0.687 | 0.132
B11 | 3.18 | 0.0219
B12 | 1.4 | 0.0547
B13 | 0.852 | 0.0823
B14 | 0.949 | 0.0745
B15 | 2.31 | 0.0492
B16 | 1.79 | 0.0433
B17 | 0.94 | 0.0965
B18 | 1.84 | 0.0422
B19 | 0.872 | 0.0827
B20 | 0.562 | 0.0919
B21 | 0.373 | 0.193

biological target: human GLP-1 receptor (GLP-1R) (human, UniProt P43220 24-463); experiment: cell-based or functional assay

Binder | hGLP1R cAMP EC50 ratio | hGLP1R cAMP Rel EC50 [nM]
B1 | 1.4 | 0.0369
B2 | 0.191 | 0.27
B3 | 0.214 | 0.121
B4 | 0.0674 | 0.373
B5 | 0.265 | 0.173
B6 | 0.262 | 0.174
B7 | 0.198 | 0.127
B8 | 0.151 | 0.303
B9 | 0.21 | 0.128
B10 | 0.535 | 0.125
B11 | 0.574 | 0.0986
B12 | 0.808 | 0.0929
B13 | 0.183 | 0.252
B14 | 0.345 | 0.184
B15 | 0.487 | 0.131
B16 | 1.86 | 0.044
B17 | 0.575 | 0.117
B18 | 0.662 | 0.124
B19 | 0.245 | 0.102
B20 | 0.255 | 0.199
B21 | 0.224 | 0.113
